Assay results from US10745461B2, “Pulsed introduction of low-dose RANKL as a therapy for diet-induced atherosclerosis” (Saint Louis University, priority 2015, dated 2020).
Entries after “also recorded” stand apart in the source; their conditions may differ.

How the values were obtained:
DLL4 = DLL4 expression in mature osteoclasts by qRT-PCR; format: cell-based, mouse
Source text: DLL-4 expression is repressed in the presence of […] and IL-17 but can be de-repressed by RANKL. Having identified that DLL4 was required for osteoclasts to induce Foxp3 expression in CD8+ T cells we next tested if DLL-4 expression was affected by pro-inflammatory cytokines. […] As RANKL induced DLL4 in osteoclast precursors, it was hypothesized that adding additional RANKL may overcome the repression of DLL4 by TNFα. To assess the reversibility of DLL4 expression, mature osteoclasts were cultured overnight in 50 ng/ml RANKL and 20 ng/ml […], and then additional RANKL was added to the culture media (while maintaining 20 ng/ml TNFα) as shown in FIG. 5E. Indeed, addition of RANKL overcomes (within 24 hours) the repression of DLL4 by TNFα as assessed by qRT-PCR. […] The experiment was performed as above, but in this case FoxP3 induction in OT-I CD8 T-cells in the presence of OVA and either 10 ng/ml or 20 ng/ml TNFα was measured.
Osteoclasts seeded on day 4 at 1.5×10^6 cells/ml were used in all experiments. RNA was isolated at time point described in Figure legends. 10 to 50 ng of RNA was used for first-strand cDNA synthesis in 50 μL reaction per kit instructions (Superscript III cDNA synthesis system; Invitrogen). In all cases 10% of the cDNA product was used in a 50 μL PCR reaction that contained 10 μM each forward and reverse primers. For quantitative PCR (qPCR) SYBR green system (Invitrogen) was used. Otherwise, cDNA was amplified (25 cycles) and the products resolved on 1.2% agarose gel and visualized by ethidium bromide staining.

ovariectomized mice = assay: Kinetics of a single low-dose RANKL treatment followed by serum CTX; format: in vivo; conditions: twice 24 hrs apart, 2 weeks post-OVX
Experimental: Food was withdrawn 6 to 10 hours prior to bleeding. Peripheral blood (100 to 200 μL) obtained via sub-mandibular vein, was allowed to clot for 2 hours at room temperature and serum collected by spinning down the cell pellet. Serum C-terminal telopeptide of type 1 collagen (serum CTX) was measured using ELISA according to the manufacturer's instructions (Immunodiagnostic Systems, Plc)
To assess the kinetics of a single treatment, C57BL/6J ovariectomized mice were treated with low-dose RANKL (administered twice 24 hrs apart, 2 weeks post-OVX) and then followed by serum CTX assay. […] In FIG. 11B, to assess whether multiple treatments are effective, sham-operated (Sx) or OVX 12-week old C57BL/6J mice were treated with low-dose RANKL (0.125 mg/kg) once per month or once with the bisphosphonate Zoledronate (ZA; 3 weeks post-OVX). 120 days post-OVX peripheral blood obtained by mandible bleeds was treated to remove RBCs (BD Pharmalyse) then 1 to 3×10^6 cells were plated per well in triplicate (6 mice/group). Media was collected after 36 hours of culturing and cytokine levels quantitated by multiplexed ELISA (Millipore).

[1] = test system: atherosclerotic lesions in the aortic root; assay: WD-fed ovariectomized LDLR-/- and WT mice dosed with saline or IdRANKL: weight, cholesterol, atheroma, BV/TV; format: in vivo; conditions: for atheroprotection / effects of OVX on atherogenesis / bone loss (BV/TV): LDLR-/- and WT mice; for reduction of plaque size compared to non-treated animals: WD, OVX; for body weight gain: ovariectomized WD-fed LDLR-/- and WT mice
Experimental: Ovariectomized (OVX) mice were treated with saline control or pulsed low-dose RANKL at 3 and 7 weeks post-OVX. RANKL was administered at 0.125 mg/kg twice at 0 and 24 hours for each treatment time point.
In order to define the contributions of menopause, LDL-cholesterol, and diet to postmenopausal morbidities, 10-week-old wild-type (WT) and (LDLR−/−) mice were placed on normal (ND) or western (WD) diet and we performed sham-surgery or ovariectomy two weeks after die diet switch. This regimen is intended to mimic the conditions of patients, who presumably already have fatty streaks in their vasculature by the time menopause ensues. All animals were sacrificed at 19 weeks of age, when hearts, long bones, and blood were collected.
It has been previously shown that low-dose RANKL (IdRANKL) induces TcREG in bone marrow. We postulated that induction of TcREG might be atheroprotective as it protects against osteoporosis in ovariectomized mice. To test that proposal, we first tested the ability of IdRANKL to modulate the systemic availability of proinflammatory cytokines. Thus, a new group of WT mice were fed WD, and subjected to sham or OVX surgeries, then dosed with saline or IdRANKL (two i.p. injections 3 and 7 weeks after OVX). […] We then, measured the ability of freshly isolated T-cells from peripheral blood to produce IL-17A and TNFα. […] Zoledronate is a bisphosphonate that is used clinically to prevent bone resorption (by suppressing osteoclasts). […] Without being limited to any particular theory of operation, we hypothesize that these cells contribute to postmenopausal comorbidities such as atherosclerosis and osteoporosis, and that immunosuppressing therapies such as pulsed IdRANKL will have cardio- and osteo-protective effects.
To test this hypothesis, a new group of LDLR−/− and WT mice were fed WD and ovariectomized as discussed previously, and dosed with saline or IdRANKL as above. […] The underlying mechanism for this limiting weight-gain following induction of TcREG is not known, but warrants further study. […] This beneficial effect was more pronounced in WI mice, where plaques were reduced by 80% in size, compared to non-treated animals. In LDLR−/− mice, the reduction was more modest at 35%. […] We conclude that IdRANKL likely exerts protective effects in the aorta and the bone via TcReG-mediated suppression of TEFF proinflammatory activity (e.g. production of IL-17A and TNFα).

B1: receptor activator of NF-κB ligand (protein, UniProt O35235 139-316, looked up)
Tumor necrosis factor ligand …: FSGAPAMMEGSWLDVAQRGKPEAQPFAHLTINAASIPSGSHKVTLSSWYHDRGWAKISNMTLSNGKLRVNQDGFYYLYANICFRHHETSGSVPTDYLQLMVYVVKTSIKIPSSHNLMKGGSTKNWSGNSEFHFYSINVGGFFKLRAGEEISIQVSNPSLLDPDQDATYFGAFKVQDID
modifications: GST tag
time for RANKL to overcome the repression of DLL4 by TNFα (DLL4; 20 ng/ml TNFα): ≤ 24 h
DLL4 expression after additional RANKL (DLL4; mature osteoclasts, 50 ng/ml RANKL and 20 ng/ml TNFα maintained): increased the expression of DLL4; also recorded: overcomes
time a single treatment is effective to limit bone loss / bone resorption (ovariectomized mice; listed as low dose RANKL): approximately 28 days
time a single treatment is effective to limit bone loss / bone resorption (ovariectomized mice; listed as low-dose RANKL): up to 30 days
atheroprotection / effects of OVX on atherogenesis [1]: eliminated the effects of OVX on both osteoporosis and atherogenesis
total cholesterol in serum ([1]; LDLR-/- and WT mice (FIG. 20G)): does not significantly alter total cholesterol in serum
atheroprotection / effects of OVX on atherogenesis ([1]; listed as IdRANKL): atheroprotective
bone loss (BV/TV) ([1]; listed as IdRANKL): pronounced effect on preventing osteoporosis
bone loss (BV/TV) ([1]; listed as low-dose RANKL): prevents bone loss
serum cholesterol ([1]; LDLR-/- mice): slightly decreased
reduction of plaque size compared to non-treated animals ([1]; LDLR-/- mice): 35%
reduction of plaque size compared to non-treated animals ([1]; WT mice): 80%
body weight gain ([1]; listed as IdRANKL): ameliorated body weight gain
body weight gain ([1]; listed as low-dose RANKL): reduces body gain weight
